Data taken from the nanobody polyreactivity screen of Harvey et al. (2022).

Assay: yeast display, Sf9 membrane polyspecificity reagent, FACS + sequencing; frameworks hold sequencing errors
Method in brief: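 Synthetic nanobody libraries on Saccharomyces cerevisiae BJ5465 were galactose-induced for 36–48 hours, stained 1 hour at 4 °C with 10% biotinylated, detergent-solubilized Sf9 membrane reagent and enriched on streptavidin microbeads. FACS then separated cells into low and high (top ~1%) gates by anti-HA (expression) and streptavidin (reagent binding) fluorescence. Genes were colony-PCR amplified, MiSeq 2 × 250 sequenced and CDR-length filtered. A clone's polyreactivity label is that of its gate of origin.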
With “QVQLVESGGGLVQAGGSLRFSCAASGITFRRYAMGWYRQAPGKERELVASISRGGSTYYADSVKGRFTISRDNAKNTVYLQMNSLKPEDTAVYYCAADVAWRYDYWGQGTQVNVSS” the “polyreactivity (PSR sort gate)” value was “high polyreactivity”. For “QVQLVESGGGLVQAGGSLRFSCAASGNILPSNAMGWYRQAPGKERELVAVINSSGNTNYADSVKGRFTISRDNAKKTVYLQMNSLKPEDTAVYYCVIWFRYDRARKLYYWGQGTQVTVSS”, the “polyreactivity (PSR sort gate)” value was “high polyreactivity”. For “QVQLVESGGGLVQAGGSLRFSCAASGRIFGTYAMGWYRQAPGKERELVAAITQSGGRTYYADSVKGRFTISRDNAKNTVYLQMNSLKPEDTAVYDCNKVTYRGIGLGYDYWGQGTQVTVSS”, the “polyreactivity (PSR sort gate)” value was “high polyreactivity”. For “QVQLVESGGGLVQAGGSLRFSCAASGRIFRYYAMGWYRQAPGKERELVAGIRTSGGRTYADSVKGRFTISRDNAKNTVYLQMNSLKPEDTAVYYCAAGRRTLSMYYWGQGTQVTVSS”, the “polyreactivity (PSR sort gate)” value was “high polyreactivity”. For “QVQLVESGGGLVQAGGSLRFSCAASGRIFTFYAMGWYRQAPGKERELVAAITSGGSTYYADSVKGRFTISRDNAKNTVYLQMNSLKPEDTAVYYCNALHHTQHDYWGQGTQVTVSS”, the “polyreactivity (PSR sort gate)” value was “low polyreactivity”. With “QVQLVESGGGLVQAGGSLRFSCAASGRIFVNYAMGWYRQAPGKEREFVAAITSSGGSTYYADSVKGRFTISRDNAKNTVYLQMNSLKPEDTAVYYCAARGSLGGWGLRYYWGQGTQVTVSS” the “polyreactivity (PSR sort gate)” value was “high polyreactivity”. In the case of “QVQLVESGGGLVQAGGSLRFSCAASGRIYYNAMGWYRQAPGKERELVAAISGSGTRTYYADSVKGRFTISRDNAKNTVFLQMNSLKPEDTAVYYCNAKFFLAATTRYYYWGQGTQVTVSS”, the “polyreactivity (PSR sort gate)” value was “high polyreactivity”. With “QVQLVESGGGLVQAGGSLRFSCAASGRTFPSKTMGLYRQAPGKERELVAAISKNGGSTYYADSVKGRFTISRDNAKNTVYLQMNSLKPEDTAVYYCNRVRYPRVDYWGQGTQVTVSS” the “polyreactivity (PSR sort gate)” value was “high polyreactivity”. For “QVQLVESGGGLVQAGGSLRFSCAASGRTFQYYAMGWSRQAPGKERELVAAISQDGGSTYYADSVKGRFTISRDNAKNTVYLQMNSLKPEDTAVYYCAAEVWRSYGYWGQGTQVTVSS”, the “polyreactivity (PSR sort gate)” value was “low polyreactivity”. For “QVQLVESGGGLVQAGGSLRFSCAASGSIFDSYAMGWYRHAPGKERELVAAITWSGGITFYADSVKGRYTISRDNAKNTVYLQMNSLKPEDTAVYYCATARSYVGVGGTFVGLYDYWGQGTQVTVSS”, the “polyreactivity (PSR sort gate)” value was “low polyreactivity”. With “QVQLVESGGGLVQAGGSLRFSCAASGSIFGKNAIGWYRQAPGKERELVAAITRSGGSTYYADSVKGRFTISRDNAKNTVYLQMNSLKPEDTAVYYCNAVRVRVTSHRIRQLDYGYWGQGTQVTVSS” the “polyreactivity (PSR sort gate)” value was “low polyreactivity”. With “QVQLVESGGGLVQAGGSLRFSCAASGSIFGSYAMGWYRQAPGKERELVAAITRGGGTTYYADSVKGRFTISRDNAKNTVYLQMNSLKPEDTAVYYCAAKWYHPYGPVYYWGQGTQVTVSS” the “polyreactivity (PSR sort gate)” value was “high polyreactivity”. With “QVQLVESGGGLVQAGGSLRFSCAASGSIFGYYSLGWYRQAPGKERELVASITFRDGSTYYADSVKGRFTISRDNAKNTVYLQMNSLKPEDTAVYYCAARYYRRYFSDYDYWGQGTQVTVSS” the “polyreactivity (PSR sort gate)” value was “low polyreactivity”. For “QVQLVESGGGLVQAGGSLRFSCAASGSIFPYAMGWSIQEPGKERELVAAITSGVRTNYADSVKGRFTISRDNAKNPVDLQMNSLKPEATEVYYCAVLPRGSNGMDYWGQGTQVTVSS”, the “polyreactivity (PSR sort gate)” value was “low polyreactivity”. In the case of “QVQLVESGGGLVQAGGSLRFSCAASGSIFRLYAMGWYRLAPGKDRELVATLTSGGNTYADSVKGRFTISRENAKNTVYLQMNSLKPEDTAVYYCHAGQYGYYYKGYDYWGQGTQVTVSS”, the “polyreactivity (PSR sort gate)” value was “high polyreactivity”. With “QVQLVESGGGLVQAGGSLRFSCAASGSIFYVYAMGWYRQAPGKERELVAAIRWSGGSTYYADSVKGRFTISRDNAKKSVYLQMNSLKPEDTAVYYCAADAIPDSVCYWEYDYWGQGTQVTVSS” the “polyreactivity (PSR sort gate)” value was “low polyreactivity”. For “QVQLVESGGGLVQAGGSLRFSCAASGSIYRNNAIGWYRQAPGKERELVAAITSTGTGTYYADSVKGRFTISRDNAKNTVYFQMNSLKPEDTAVYYCAVDDDFEFGYWGQGTQVTVSS”, the “polyreactivity (PSR sort gate)” value was “low polyreactivity”. For “QVQLVESGGGLVQAGGSLRFSCAASGSTFGTYAMGWYRQAPGKERELVAAITSGGSTDYADSVKGRFTISRDNAKNTVYLQMNSLKPEDTAVYYCNATWELLSYYYLFWGYDYWGQGTQVTVSS”, the “polyreactivity (PSR sort gate)” value was “low polyreactivity”. In the case of “QVQLVESGGGLVQAGGSLRFSCAASGSTFTTNVMGWYRQAPGKERELVAAISWSSGSTYYADSVKGRFTISRDNAKNTVYLQMNSLKPEDTAVYYCAARLVIFYPYSRYYYWGQGTQVTVSS”, the “polyreactivity (PSR sort gate)” value was “high polyreactivity”. For “QVQLVESGGGLVQAGGSLRFSCAASGYTVGDYAMGSYRQAPGKERELVAVITRNGGRTYYADSVKGRFTISRDNAKNTVYLQMNSLKPEDTAVYYCNRDTSIRHYNYWGQGTQVTVSS”, the “polyreactivity (PSR sort gate)” value was “high polyreactivity”. For “QVQLVESGGGLVQAGGSLRFSCAASVFTFYSYAMGSDSQSPGKESEFVAAINQTSGSTTYADSVKGRFTISRDYGKNTVYLKMISLKPEDTAVYYCNAYQYYERYDTYLFRYDYWGQGTQVTVSS”, the “polyreactivity (PSR sort gate)” value was “low polyreactivity”. In the case of “QVQLVESGGGLVQAGGSLRFSCAYSGRTFFGYAMGWYRQAPGKERELVAAITSAGGRTYYADSVKGRYTISRDNAKNTVYLQMNSLKPEYTAVYYCAATRWYYGLSAFDSWGQGTQVTVSS”, the “polyreactivity (PSR sort gate)” value was “high polyreactivity”. With “QVQLVESGGGLVQAGGSLRFSCVASGSIFRGNAKGWYRQAPGKERELVASISKGGGSTYYADSVKGRFLISRDNAKNTVYLQMNSLKPEDTAVYYCAARGGLDGIQYDYDYWGQGTQVTVSS” the “polyreactivity (PSR sort gate)” value was “low polyreactivity”. In the case of “QVQLVESGGGLVQAGGSLRIICAASGRTFRGYAMGWYRQAPGKERELVAAITSGGSTNYADSVKGRFTISRDNAKNTVYLQMHSLKPEDTAVYYCNRDTSKYGLWRYIYDYWGQGTQVTVSS”, the “polyreactivity (PSR sort gate)” value was “low polyreactivity”. In the case of “QVQLVESGGGLVQAGGSLRIICAASGRTFSYYAMGWYRQAPGKERELVAVITSSGGSTSYADSVKGRFTISRDNAKNTVYLQMKSLKPEDTAVYYCAADPLAVSWAYYLFGVDYWGHGTQVTVSS”, the “polyreactivity (PSR sort gate)” value was “high polyreactivity”. With “QVQLVESGGGLVQAGGSLRIRCAASGSIFWYNAMGWYRQAPGKERELVAAISYRGGSTYYADSVKGRFTISRDNAKNTVYLQMNSLKPEDTAVYYCAAEYGDVYVWTYDYWGQGTQVTVSS” the “polyreactivity (PSR sort gate)” value was “high polyreactivity”. With “QVQLVESGGGLVQAGGSLRISCAASASIFPQYALGWYRQAPGKERELVAGISGSGGGTYYADSVKGRFTISRDNAKNTVSVQIHSLKPEDTAVYYCYDYWRQGTQVTVSS” the “polyreactivity (PSR sort gate)” value was “low polyreactivity”. For “QVQLVESGGGLVQAGGSLRISCAASDAMGWYRQAPGKERELVASISNGVSTNYADSVKGRFTISRDNAKNTVYLQMNSLKPEDTAVYYCAADAKTVGRDDLYWYEVEFDYWGQGTQVNVSS”, the “polyreactivity (PSR sort gate)” value was “low polyreactivity”. In the case of “QVQLVESGGGLVQAGGSLRISCAASGFAFSYYAMGWYRQAPGKEREFVASIDWSGGSTYYADSVKGRFTISRDNAKNTVYLQMNSLKPEDTAVYYCAAELDYFPGYDYWGQGTQVTVSS”, the “polyreactivity (PSR sort gate)” value was “low polyreactivity”. For “QVQLVESGGGLVQAGGSLRISCAASGFIFEQYAMGWYRQAPGKERELVARISWRGGSTYYADSVKGRFTISRDNAKNTVYLQMNSLKPEDTAVYYCAADVYTRFWRVYRFDYWGQGTQVTVSS”, the “polyreactivity (PSR sort gate)” value was “low polyreactivity”. With “QVQLVESGGGLVQAGGSLRISCAASGFIFKVYAMGWYRQAPGKERELVAAITSSGGSTYYADSVKGRFTISRDNAKNTVYLQMNSLIPEDTAVYYCAAQFPGVYYYIYDYWGQGTQVTVSS” the “polyreactivity (PSR sort gate)” value was “high polyreactivity”. With “QVQLVESGGGLVQAGGSLRISCAASGFIFVTYAMGWYRQAPGKERELVAAITNSGGTTYYADSVKGRFTISRDNAKNTVYLQMNSLKPEDTAVYYCNKPYGAETAHREFDYWGQGTQVTVSS” the “polyreactivity (PSR sort gate)” value was “low polyreactivity”. With “QVQLVESGGGLVQAGGSLRISCAASGFTFDTNAMGWYRQAPGKERELVAAISRIGGRTYADSVKGRFTISRDNAKNTVYLQMNSLKPEDTAVYYCADDRSSAYRWRSAGYYKYDYWGQGTQVTVSS” the “polyreactivity (PSR sort gate)” value was “low polyreactivity”. With “QVQLVESGGGLVQAGGSLRISCAASGFTFKAYAMGWYRLAPGKERELVAAITKSGGRTFYADSVKGRFTISRDNAKNTVYLQMNSLKPEDTAVYYCAASYTVYYWGQGTQVTVSS” the “polyreactivity (PSR sort gate)” value was “high polyreactivity”. In the case of “QVQLVESGGGLVQAGGSLRISCAASGFTFNANAMGWYRQAPGNERELVAAISLSGGRTYYADSVKGRFTISRDNAKNTVYLQMNSLKPEDTAVYYCAASPDGSFRRFSRVVSGDYWGQGTQVTVSS”, the “polyreactivity (PSR sort gate)” value was “high polyreactivity”. In the case of “QVQLVESGGGLVQAGGSLRISCAASGFTFNKYAMGWYRQAPGKERELVAALTVSGSRTYYADSVKGRFTISRDNAKNTVYLQMNSLKPEDTAVYYCAARKWYYYLRPWTSVGGYYWGQGTQVTVSS”, the “polyreactivity (PSR sort gate)” value was “high polyreactivity”. In the case of “QVQLVESGGGLVQAGGSLRISCAASGFTFVSNDMGWYRQAPGKERELVAAISQGGGSTYYADSVKGRFTISRDNAKNTVYLQMNSLKPEDTAVYYCAADIWARYYFWGFEHDYWGQGTQVTVSS”, the “polyreactivity (PSR sort gate)” value was “low polyreactivity”. With “QVQLVESGGGLVQAGGSLRISCAASGFTSTYYAMGWYRPAPGTERELVAAITSSGTRTYYADSVKGRFTISRDIAKKTGYLQMNSLKPEDTAVYYCNASHRKGMYYWGLGTQVTVSS” the “polyreactivity (PSR sort gate)” value was “high polyreactivity”. With “QVQLVESGGGLVQAGGSLRISCAASGFTYRKNAMGWDRQAPGKERELVAAITQSSGRTYYADTVKGRFTISRDNAKNTVYLQMNSLKPEDTAVYYCAARGVWPEYDYWGQGTQVNVSS” the “polyreactivity (PSR sort gate)” value was “low polyreactivity”. For “QVQLVESGGGLVQAGGSLRISCAASGGTFLYYAMGWYRQAPGKERELVAAISRGGSTHYADSVKGRFTISRDNAKNTVYLQMNSLKPEDTAVYYCAVDGGEFSSYGYWGQGTQVTVSS”, the “polyreactivity (PSR sort gate)” value was “low polyreactivity”. In the case of “QVQLVESGGGLVQAGGSLRISCAASGIIFPQYTMGWYRPAPGKERELVAVITSGGSTYYADSVKGRFTISRDNAKNTVYLQMNSLNPEDTAVYYCAAETETYWWTFITREYDYWGQGTQVTVSS”, the “polyreactivity (PSR sort gate)” value was “high polyreactivity”.
